Data reported in publication PMC6956814, “Deubiquitinase USP28 inhibits ubiquitin ligase KLHL2-mediated uridine-cytidine kinase 1 degradation and confers sensitivity to 5'-azacytidine-resistant human leukemia cells” (Theranostics, 2020).

Molecular target: T1, His-tagged KLHL2 protein (human, UniProt O95198 1-593)
T1 construct: Kelch Like Family Member 2 (KLHL2), human; source: recombinant
T1 sequence (looked up): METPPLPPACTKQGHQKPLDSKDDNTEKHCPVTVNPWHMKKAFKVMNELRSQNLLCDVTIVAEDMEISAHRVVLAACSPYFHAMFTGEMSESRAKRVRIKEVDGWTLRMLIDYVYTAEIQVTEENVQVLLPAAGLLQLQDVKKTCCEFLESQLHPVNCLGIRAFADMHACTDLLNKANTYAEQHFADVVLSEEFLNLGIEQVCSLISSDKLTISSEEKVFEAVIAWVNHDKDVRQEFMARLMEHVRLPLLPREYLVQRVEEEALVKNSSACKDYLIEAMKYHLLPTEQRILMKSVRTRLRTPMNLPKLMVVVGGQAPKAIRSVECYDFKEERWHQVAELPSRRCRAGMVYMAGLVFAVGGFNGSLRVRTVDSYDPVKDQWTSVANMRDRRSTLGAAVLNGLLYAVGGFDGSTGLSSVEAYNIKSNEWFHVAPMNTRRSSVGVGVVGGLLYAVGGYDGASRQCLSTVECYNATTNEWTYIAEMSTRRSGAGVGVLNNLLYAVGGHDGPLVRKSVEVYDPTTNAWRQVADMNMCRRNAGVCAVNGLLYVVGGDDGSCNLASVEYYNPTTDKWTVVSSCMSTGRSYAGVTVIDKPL
Experiment: pull-down; recombinant GST-UCK1 protein incubated with His-tagged KLHL2 protein; GST pull-down
Conditions: both partners purified

B1: Recombinant GST-UCK1 protein (enzyme, human, UniProt Q9HA47 1-277, looked up)
chain: MASAGGEDCESPAPEADRPHQRPFLIGVSGGTASGKSTVCEKIMELLGQNEVEQRQRKVVILSQDRFYKVLTAEQKAKALKGQYNFDHPDAFDNDLMHRTLKNIVEGKTVEVPTYDFVTHSRLPETTVVYPADVVLFEGILVFYSQEIRDMFHLRLFVDTDSDVRLSRRVLRDVRRGRDLEQILTQYTTFVKPAFEEFCLPTKKYADVIIPRGVDNMVAINLIVQHIQDILNGDICKWHRGGSNGRSYKRTFSEPGDHPGMLTSGKRSHLESSSRPH
notes: uridine-cytidine kinase 1 (UCK1), human; source: recombinant
B1: binds.
